Here are results for four molecules from paper PMC3828522 (Genes & Development, 2013).

Residue numbers refer to the chain shown, from its start. In names and notes the source's numbering stands.

Experiment [1] has as its target biotin-YY1 spacer peptide (human, UniProt P25490 199-228, biotin (position not given)). In words: SPR. In general terms: SPR reads the build-up and loss of mass on a sensor chip optically.
The target of experiment [2] is full-length Pho protein (EMSA) (Drosophila melanogaster, UniProt Q8ST83 1-520). Description: native gel or EMSA.
Experiment [3] addresses biotin-Pho spacer peptide (Drosophila melanogaster, UniProt Q8ST83 145-172, biotin (position not given)). In words: SPR.

Sequence of biotin-YY1 spacer peptide (P25490 199-228): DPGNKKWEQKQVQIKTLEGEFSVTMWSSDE
Sequence of full-length Pho protein (EMSA) (Q8ST83 whole entry): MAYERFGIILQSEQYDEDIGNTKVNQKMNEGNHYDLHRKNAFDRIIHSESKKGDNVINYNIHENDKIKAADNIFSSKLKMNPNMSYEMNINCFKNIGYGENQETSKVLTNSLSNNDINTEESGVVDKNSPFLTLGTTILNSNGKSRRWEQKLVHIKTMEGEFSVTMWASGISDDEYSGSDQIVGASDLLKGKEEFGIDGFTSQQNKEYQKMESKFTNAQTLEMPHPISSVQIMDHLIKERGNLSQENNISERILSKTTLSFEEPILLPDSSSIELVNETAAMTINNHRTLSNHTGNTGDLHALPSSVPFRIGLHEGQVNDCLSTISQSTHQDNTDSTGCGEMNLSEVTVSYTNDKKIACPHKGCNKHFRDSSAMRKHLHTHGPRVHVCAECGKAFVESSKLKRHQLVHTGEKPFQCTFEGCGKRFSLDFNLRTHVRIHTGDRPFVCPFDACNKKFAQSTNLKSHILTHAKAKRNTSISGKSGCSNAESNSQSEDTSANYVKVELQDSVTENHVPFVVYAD
Sequence of biotin-Pho spacer peptide (Q8ST83 145-172): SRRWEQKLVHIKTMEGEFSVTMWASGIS

B1: L3MBTL2 4MBT domain, human (domain or fragment)
chain: TGQDALVLGFDWGKFLKDHSYKAAPVSCFKHVPLYDQWEDVMKGMKVEVLNSDAVLPSRVYWIASVIQTAGYRVLLRYEGFENDASHDFWCNLGTVDVHPIGWCAINSKILVPPRTIHAKFTDWKGYLMKRLVGSRTLPVDFHIKMVESMKYPFRQGMRLEVVDKSQVSRTRMAVVDTVIGGRLRLLYEDGDSDDDFWCHMWSPLIHPVGWSRRVGHGIKMSERRSDMAHHPTFRKIYCDAVPYLFKKVRAVYTEGGWFEEGMKLEAIDPLNLGNICVATVCKVLLDGYLMICVDGGPSTDGLDWFCYHASSHAIFPATFCQKNDIELTPPKGYEAQTFNWENYLEKTKSKAAPSRLFNMDCPNHGFKVGMKLEAVDLMEPRLICVATVKRVVHRLLSIHFDGWDSEYDQWVDCESPDIYPVGWCELTGYQLQPPVAAEPATPLKAKEATKKKKKQ
For B1, the “fold weaker affinity than the Drosophila complex” value in experiment [1] was around 50 fold.

B2: MBTD1 4MBT domain, human (domain or fragment)
chain: AKTKAAVSMEGFSWGNYINSNSFIAAPVTCFKHAPMGTCWGDISENVRVEVPNTDCSLPTKVFWIAGIVKLAGYNALLRYEGFENDSGLDFWCNICGSDIHPVGWCAASGKPLVPPRTIQHKYTNWKAFLVKRLTGAKTLPPDFSQKVSESMQYPFKPCMRVEVVDKRHLCRTRVAVVESVIGGRLRLVYEESEDRTDDFWCHMHSPLIHHIGWSRSIGHRFKRSDITKKQDGHFDTPPHLFAKVKEVDQSGEWFKEGMKLEAIDPLNLSTICVATIRKVLADGFLMIGIDGSEAADGSDWFCYHATSPSIFPVGFCEINMIELTPPRGYTKLPFKWFDYLRETGSIAAPVKLFNKDVPNHGFRVGMKLEAVDLMEPRLICVATVTRIIHRLLRIHFDGWEEEYDQWVDCESPDLYPVGWCQLTGYQLQPPASQSSR
As to B2, the “fold weaker affinity than the Drosophila complex” value in experiment [1] is around 50 fold.

B3: Sfmbt 4MBT domain (Sfmbt 531-980), wild type (domain or fragment, Drosophila melanogaster, UniProt Q9VK33 531-980, looked up)
chain: DPTHSYDWLPRLSKENFNAAPVTCFPHAPGCEVWDNLGVGMKVEVENTDCDSIEVIQPGQTPTSFWVATILEIKGYKALMSYEGFDTDSHDFWVNLCNAEVHSVGWCATRGKPLIPPRTIEHKYKDWKDFLVGRLSGARTLPSNFYNKINDSLQSRFRLGLNLECVDKDRISQVRLATVTKIVGKRLFLRYFDSDDGFWCHEDSPIIHPVGWATTVGHNLAAPQDYLERMLAGREAMIEVHEDDATIELFKMNFTFDEYYSDGKTNSFVEGMKLEAVDPLNLSSICPATVMAVLKFGYMMIRIDSYQPDASGSDWFCYHEKSPCIFPAGFCSVNNISVTPPNGYDSRTFTWEGYLRDTGAVAAGQHLFHRIIPDHGFEVGMSLECADLMDPRLVCVATVARVVGRLLKVHFDGWTDEYDQWLDCESADIYPVGWCVLVNHKLEGPPRVAH
As for B3, the binding result in experiment [2] is “binds”.

B4: Sfmbt 4MBT S633P/S673P (domain or fragment, Drosophila melanogaster, UniProt Q9VK33 531-980, looked up)
chain: B3 chain with S103P, S143P
As for B4, the “fold decrease in binding affinity against the wild type” value in experiment [3] came out at 2 fold.
